Measured values taken from article PMC12392091.

Molecular target: T1, DdaA (Ab) (Acinetobacter baumannii ATCC 17978, UniProt V5VBS3 1-335)
T1 sequence: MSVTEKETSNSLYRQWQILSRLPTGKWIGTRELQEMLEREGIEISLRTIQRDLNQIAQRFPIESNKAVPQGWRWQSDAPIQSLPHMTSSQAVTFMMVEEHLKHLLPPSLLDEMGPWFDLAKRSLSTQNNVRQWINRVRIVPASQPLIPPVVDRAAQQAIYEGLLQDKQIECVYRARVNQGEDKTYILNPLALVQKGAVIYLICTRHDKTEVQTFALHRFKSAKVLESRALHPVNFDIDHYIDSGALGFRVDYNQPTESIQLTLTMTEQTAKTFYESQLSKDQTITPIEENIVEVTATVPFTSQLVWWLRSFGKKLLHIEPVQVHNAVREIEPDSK
Experiment: EMSA

B1: recA promoter WT (FAM-AR-DDRM) (dsDNA)
DNA 1: TTTCCGGTCTGGGCGACACAATATGACGTGTAATTTTAACC
DNA 2: GGTTAAAATTACACGTCATATTGTGTCGCCCAGACCGGAAA
binding result: binds
